Laboratory results taken from patent publication US20180155451A1 (published 2018).

T1: FcγRIIb extracellular domain with C-terminal His tag (human, UniProt P31994 43-217)
T1 construct: extracellular domain; Soluble receptor expressed in FreeStyle293 cells and used as analyte in Biacore; also called FcgRIIb; 2b; not shown: His tag at the C terminus
T1 sequence (looked up): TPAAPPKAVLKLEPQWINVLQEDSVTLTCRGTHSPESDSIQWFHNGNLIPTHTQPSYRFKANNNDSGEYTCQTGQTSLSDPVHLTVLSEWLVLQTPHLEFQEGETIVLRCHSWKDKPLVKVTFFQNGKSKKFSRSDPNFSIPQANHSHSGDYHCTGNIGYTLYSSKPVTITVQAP

T2: FcγRIIa R (FcγRIIa, allotype R: Arg at position 131) extracellular domain with C-terminal His tag (human, UniProt P12318 34-217)
T2 construct: extracellular domain; also called FcgRIIa R; 2aR; not shown: His tag at the C terminus
T2 sequence (looked up): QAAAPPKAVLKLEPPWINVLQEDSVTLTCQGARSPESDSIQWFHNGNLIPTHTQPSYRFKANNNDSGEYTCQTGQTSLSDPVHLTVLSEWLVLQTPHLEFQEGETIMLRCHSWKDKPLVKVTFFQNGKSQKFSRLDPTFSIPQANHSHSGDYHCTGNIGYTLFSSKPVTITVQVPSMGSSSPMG

T3: FcγRIIb extracellular domain with C-terminal His tag (human, UniProt P31994 43-217)
T3 construct: extracellular domain; also called FcgRIIb; 2b; not shown: His tag at the C terminus
T3 sequence (looked up): T1 sequence (looked up)

B1: heterodimerized antibody GpH7-A5/GpH7-B3 variant I336_03V/GpL16-k0 (antibody, human IgG1, kappa)
heavy 1: not shown
heavy 2: not shown
light: DIVMTQSPLSLPVTPGEPASISCQASESLVHSNRNTYLHWYLQKPGQSPQLLIYKVSNRFSGVPDRFSGSGSGTDFTLKISRVEAEDVGVYYCSQNTHVPPTFGQGTKVEIERTVAAPSVFIFPPSDEQLKSGTASVVCLLNNFYPREAKVQWKVDNALQSGNSQESVTEQDSKDSTYSLSSTLTLSKADYEKHKVYACEVTHQGLSSPVTKSFNRGEC
notes: Substitution in only one H chain (GpH7-B3 side); also called He Ab
B2: heterodimerized antibody GpH7-A5/GpH7-B3 variant T335_06M/GpL16-k0 (antibody, human IgG1, kappa)
heavy 1: not shown
heavy 2: not shown
light: B1 light
notes: as for B1
B3: heterodimerized antibody GpH7-A5/GpH7-B3 variant T335_12R/GpL16-k0 (antibody, human IgG1, kappa)
heavy 1: not shown
heavy 2: not shown
light: B1 light
notes: as for B1
B4: heterodimerized antibody GpH7-A5/GpH7-B3 variant K334_09D/GpL16-k0 (antibody, human IgG1, kappa)
heavy 1: not shown
heavy 2: not shown
light: B1 light
notes: as for B1
B5: heterodimerized antibody GpH7-A5/GpH7-B3 variant T335_01G/GpL16-k0 (antibody, human IgG1, kappa)
heavy 1: not shown
heavy 2: not shown
light: B1 light
notes: as for B1
B6: heterodimerized antibody GpH7-A5/GpH7-B3 variant T335_11K/GpL16-k0 (antibody, human IgG1, kappa)
heavy 1: not shown
heavy 2: not shown
light: B1 light
notes: as for B1
B7: heterodimerized antibody GpH7-A5/GpH7-B3 variant K334_01G/GpL16-k0 (antibody, human IgG1, kappa)
heavy 1: not shown
heavy 2: not shown
light: B1 light
notes: as for B1
B8: heterodimerized antibody GpH7-A5/GpH7-B3 variant T335_05P/GpL16-k0 (antibody, human IgG1, kappa)
heavy 1: not shown
heavy 2: not shown
light: B1 light
notes: as for B1
B9: heterodimerized antibody GpH7-A5/GpH7-B3 variant T335_02A/GpL16-k0 (antibody, human IgG1, kappa)
heavy 1: not shown
heavy 2: not shown
light: B1 light
notes: as for B1
B10: GpH7-A5/GpH7-B3 variant G236_02A/GpL16-k0 (antibody, human IgG1, kappa)
heavy 1: not shown
heavy 2: not shown
light: B1 light
notes: He Ab: alteration in the GpH7-B3 H chain only; also called He Ab
B11: GpH7-A5/GpH7-B3 variant L235_12R/GpL16-k0 (antibody, human IgG1, kappa)
heavy 1: not shown
heavy 2: not shown
light: B1 light
notes: as for B10
B12: GpH7-A5/GpH7-B3 variant G236_12R/GpL16-k0 (antibody, human IgG1, kappa)
heavy 1: not shown
heavy 2: not shown
light: B1 light
notes: as for B10
B13: GpH7-A5/GpH7-B3 variant G236_13S/GpL16-k0 (antibody, human IgG1, kappa)
heavy 1: not shown
heavy 2: not shown
light: B1 light
notes: as for B10
B14: GpH7-A5/GpH7-B3 variant G236_07I/GpL16-k0 (antibody, human IgG1, kappa)
heavy 1: not shown
heavy 2: not shown
light: B1 light
notes: as for B10
B15: GpH7-A5/GpH7-B3 variant G236_19Q/GpL16-k0 (antibody, human IgG1, kappa)
heavy 1: not shown
heavy 2: not shown
light: B1 light
notes: as for B10
B16: GpH7-A5/GpH7-B3 variant G236_05P/GpL16-k0 (antibody, human IgG1, kappa)
heavy 1: not shown
heavy 2: not shown
light: B1 light
notes: as for B10
B17: GpH7-A5/GpH7-B3 variant L234_01G/GpL16-k0 (antibody, human IgG1, kappa)
heavy 1: not shown
heavy 2: not shown
light: B1 light
notes: as for B10
B18: GpH7-A5/GpH7-B3 variant G236_04F/GpL16-k0 (antibody, human IgG1, kappa)
heavy 1: not shown
heavy 2: not shown
light: B1 light
notes: as for B10
B19: GpH7-A5/GpH7-B3 variant G237_14T/GpL16-k0 (antibody, human IgG1, kappa)
heavy 1: not shown
heavy 2: not shown
light: B1 light
notes: as for B10
B20: GpH7-A5/GpH7-B3 variant G236_08L/GpL16-k0 (antibody, human IgG1, kappa)
heavy 1: not shown
heavy 2: not shown
light: B1 light
notes: as for B10
B21: GpH7-A5/GpH7-B3 variant G236_03V/GpL16-k0 (antibody, human IgG1, kappa)
heavy 1: not shown
heavy 2: not shown
light: B1 light
notes: as for B10
B22: GpH7-A5/GpH7-B3 variant G236_14T/GpL16-k0 (antibody, human IgG1, kappa)
heavy 1: not shown
heavy 2: not shown
light: B1 light
notes: as for B10
B23: GpH7-A5/GpH7-B3 variant G237_11K/GpL16-k0 (antibody, human IgG1, kappa)
heavy 1: not shown
heavy 2: not shown
light: B1 light
notes: as for B10
B24: GpH7-A5/GpH7-B3 variant G236_06M/GpL16-k0 (antibody, human IgG1, kappa)
heavy 1: not shown
heavy 2: not shown
light: B1 light
notes: as for B10
B25: GpH7-A5/GpH7-B3 variant G237_12R/GpL16-k0 (antibody, human IgG1, kappa)
heavy 1: not shown
heavy 2: not shown
light: B1 light
notes: as for B10
B26: GpH7-A5/GpH7-B3 variant G237_16H/GpL16-k0 (antibody, human IgG1, kappa)
heavy 1: not shown
heavy 2: not shown
light: B1 light
notes: as for B10
B27: GpH7-A5/GpH7-B3 variant G236_15Y/GpL16-k0 (antibody, human IgG1, kappa)
heavy 1: not shown
heavy 2: not shown
light: B1 light
notes: as for B10
B28: GpH7-A5/GpH7-B3 variant G236_16H/GpL16-k0 (antibody, human IgG1, kappa)
heavy 1: not shown
heavy 2: not shown
light: B1 light
notes: as for B10
B29: GpH7-A5/GpH7-B3 variant G236_20W/GpL16-k0 (antibody, human IgG1, kappa)
heavy 1: not shown
heavy 2: not shown
light: B1 light
notes: as for B10
B30: GpH7-A5/GpH7-B3 variant G237_05P/GpL16-k0 (antibody, human IgG1, kappa)
heavy 1: not shown
heavy 2: not shown
light: B1 light
notes: as for B10
B31: GpH7-A5/GpH7-B3 variant G237_03V/GpL16-k0 (antibody, human IgG1, kappa)
heavy 1: not shown
heavy 2: not shown
light: B1 light
notes: as for B10

Molecular target: T4, FcγRIa extracellular domain with C-terminal His tag (human, UniProt P12314 16-292)
T4 construct: extracellular domain; Soluble receptor expressed in FreeStyle293 cells and used as analyte in Biacore; also called FcgRI; 1a; not shown: His tag at the C terminus
Assay: SPR Biacore, relative binding amount

T4 sequence (P12314 16-292): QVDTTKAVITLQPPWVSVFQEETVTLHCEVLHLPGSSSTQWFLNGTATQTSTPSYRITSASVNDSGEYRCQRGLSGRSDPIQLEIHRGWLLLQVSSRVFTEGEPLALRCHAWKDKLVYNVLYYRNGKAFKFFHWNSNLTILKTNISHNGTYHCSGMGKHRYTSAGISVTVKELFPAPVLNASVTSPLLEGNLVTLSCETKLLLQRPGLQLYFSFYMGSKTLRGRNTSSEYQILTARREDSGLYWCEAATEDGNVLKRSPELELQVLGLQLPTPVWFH

Row | Binder | He/Con_1a
1 | B1 | 105 % of GpH7-A5/GpH7-B3/GpL16-k0 (=100)
2 | B2 | 107 % of GpH7-A5/GpH7-B3/GpL16-k0 (=100)
3 | B3 | 113 % of GpH7-A5/GpH7-B3/GpL16-k0 (=100)
4 | B4 | 106 % of GpH7-A5/GpH7-B3/GpL16-k0 (=100)
5 | B5 | 104 % of GpH7-A5/GpH7-B3/GpL16-k0 (=100)
6 | B6 | 111 % of GpH7-A5/GpH7-B3/GpL16-k0 (=100)
7 | B7 | 104 % of GpH7-A5/GpH7-B3/GpL16-k0 (=100)
8 | B8 | 106 % of GpH7-A5/GpH7-B3/GpL16-k0 (=100)
9 | B9 | 103 % of GpH7-A5/GpH7-B3/GpL16-k0 (=100)

Molecular target: T1, FcγRIIb extracellular domain with …
Assay: SPR Biacore, relative binding amount

Row | Binder | He/Con_2b
10 | B1 | 90.3 % of GpH7-A5/GpH7-B3/GpL16-k0 (=100)
11 | B2 | 99.4 % of GpH7-A5/GpH7-B3/GpL16-k0 (=100)
12 | B3 | 91.9 % of GpH7-A5/GpH7-B3/GpL16-k0 (=100)
13 | B4 | 94.8 % of GpH7-A5/GpH7-B3/GpL16-k0 (=100)
14 | B5 | 96.7 % of GpH7-A5/GpH7-B3/GpL16-k0 (=100)
15 | B6 | 91 % of GpH7-A5/GpH7-B3/GpL16-k0 (=100)
16 | B7 | 92.5 % of GpH7-A5/GpH7-B3/GpL16-k0 (=100)
17 | B8 | 99.9 % of GpH7-A5/GpH7-B3/GpL16-k0 (=100)
18 | B9 | 94 % of GpH7-A5/GpH7-B3/GpL16-k0 (=100)

Molecular target: T2, FcγRIIa R (FcγRIIa, allotype R: Arg at …)
Assay: ratio He/Con_2aR : He/Con_2b (FcgRIIa R over FcgRIIb), SPR Biacore
Procedure: The heterodimerized antibodies He Abs in which one of the H chains was introduced with an alteration were assayed for their binding activities to each activating FcγR and inhibitory FcγR according to the method described in Example 4. […] The activating FcγRs in FIGS. 26, 27, 28, and 29 are FcγRIa, FcγRIIa (R), FcγRIIa (H), and FcγRIIIa, respectively.
Analysis of interaction between objective antibody and the FcγR was carried out using Biacore T100 (GE Healthcare). HBS-EP+ (GE Healthcare) was used as the running buffer, and the measurement temperature was set to 25° C. Chips produced by immobilizing the antigen peptide by the amine coupling method to a Series S Sencor Chip CM5 (GE Healthcare), or alternatively, chips produced by allowing preliminarily biotinylated antigen peptides to interact with and immobilize onto a Series S Sensor Chip SA (certified) (GE Healthcare) were used. Antibodies of interest were captured onto an antigen peptide-immobilized chip, and allowed to interact to each FcγR diluted with running buffer. To regenerate and repeatedly use the chip, the antibodies captured on the chip were washed off by reacting 10 mM glycine-HCl, pH 1.5.

Row | Binder | He_2aR/2b (IIaR/IIb)
19 | B10 | 1.51
20 | B11 | 1.69
21 | B12 | 3.55
22 | B13 | 1.41
23 | B14 | 2.81
24 | B15 | 1.59
25 | B16 | 2.52
26 | B17 | 1.23
27 | B18 | 1.35
28 | B19 | 1.43
29 | B20 | 2.45
30 | B21 | 2.6
31 | B22 | 1.78
32 | B23 | 1.9
33 | B24 | 1.26
34 | B25 | 2.47
35 | B26 | 1.35
36 | B27 | 1.48
37 | B28 | 2.24
38 | B29 | 1.34
39 | B30 | 1.4
40 | B31 | 1.52

Molecular target: T3, FcγRIIb extracellular domain with …
Assay: SPR Biacore, antibody captured, FcgR analyte; vs HeCon Ab GpH7-A5/GpH7-B3/GpL16-k0 = 100

Row | Binder | He/Con_2b [control = 100]
41 | B10 | 96.5
42 | B12 | 6.8
43 | B13 | 96.7
44 | B14 | 31
45 | B15 | 46.6
46 | B16 | 19
47 | B17 | 50.7
48 | B18 | 39.3
49 | B19 | 54.8
50 | B20 | 26.8
51 | B21 | 35.3
52 | B22 | 57.8
53 | B24 | 45.5
54 | B26 | 55.2
55 | B27 | 39.5
56 | B28 | 27.9
57 | B29 | 58.2
58 | B30 | 24.6
59 | B31 | 61.4

Molecular target: T2, FcγRIIa R (FcγRIIa, allotype R: Arg at …)
Assay: as above

Row | Binder | He/Con_2aR [control = 100]
60 | B10 | 146
61 | B11 | 16.2
62 | B12 | 24.1
63 | B13 | 136
64 | B14 | 87.1
65 | B15 | 74.2
66 | B16 | 47.9
67 | B17 | 62.3
68 | B18 | 53.1
69 | B19 | 78.6
70 | B20 | 65.8
71 | B21 | 91.6
72 | B22 | 103
73 | B23 | 17.1
74 | B24 | 57.3
75 | B25 | 24.2
76 | B26 | 74.5
77 | B27 | 58.6
78 | B28 | 62.7
79 | B29 | 77.9
80 | B30 | 34.5
81 | B31 | 93
